# Measurements as given in article PMC10160606, “Identification of GA20ox2 as a target of ATHB2 and TCP13 during shade response”.
# T1: ATHB2 (UniProt Q05466 1-284)
# T1 sequence: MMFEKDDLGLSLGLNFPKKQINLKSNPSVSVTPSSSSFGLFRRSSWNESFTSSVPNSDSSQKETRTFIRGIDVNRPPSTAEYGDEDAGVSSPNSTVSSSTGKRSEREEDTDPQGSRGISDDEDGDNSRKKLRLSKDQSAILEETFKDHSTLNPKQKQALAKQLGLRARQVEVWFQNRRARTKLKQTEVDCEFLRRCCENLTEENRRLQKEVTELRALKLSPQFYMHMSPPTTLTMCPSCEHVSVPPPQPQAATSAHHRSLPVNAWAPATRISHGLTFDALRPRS
# Target: T1, ATHB2
# Experiment: EMSA; 100x unlabeled identical oligonucleotide used as competitor in a separate lane; LightShift Chemiluminescent EMSA Kit (Thermo Fisher) per manufacturer; native gel; buffer, salt, pH and temperature not stated
# Conditions: protein: recombinant; tags: 6xHis (pET-28a); chain copies: 2; label: 3' biotin on both strands; blunt
binder,measurement,value
GA20ox2 promoter ABS1 31-mer (dsDNA) DNA 1: CAATTTGAAGACAATGTTAGGAATTAGTTAC DNA 2: GTAACTAATTCCTAACATTGTCTTCAAATTG,binding result,binds
